These results are taken from publication PMC12670495.

This assay deals with ANT4044-DOTA (human). The assay is described as follows: SPR; Biacore T200, single-cycle kinetics, 25 °C, HBS-EP+; antibody-DOTA captured on a Protein G chip (~50 RU); PSMA as analyte, three-point 2-fold dilution 12.5-50 nM, 40 uL/min; association 200 s, dissociation 1500 s; Langmuir 1:1 fit. Background: In SPR one partner is held on a chip, and binding of the other changes the refractive index at the surface.
ANT4044-DOTA (human), sequence (heavy, as listed by the source, chain 1 of 2): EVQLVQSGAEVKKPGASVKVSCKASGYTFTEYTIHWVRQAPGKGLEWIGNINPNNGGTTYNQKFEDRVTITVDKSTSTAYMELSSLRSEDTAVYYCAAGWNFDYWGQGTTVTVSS
ANT4044-DOTA (human), sequence (light, as listed by the source, chain 2 of 2): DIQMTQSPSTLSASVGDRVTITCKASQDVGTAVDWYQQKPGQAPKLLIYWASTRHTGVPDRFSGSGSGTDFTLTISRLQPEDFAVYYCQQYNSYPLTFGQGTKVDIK

Usually Kd stands for the constant that tells how readily two partners part at equilibrium. Lower therefore signals higher affinity. As a reminder, the koff is the first-order rate constant of dissociation. By kon is commonly meant the rate constant with which the complex forms. cynomolgus PSMA (natural protein) returned a Kd of 2.68 nM, an off-rate (koff) of 0.000187 s⁻¹ and an on-rate constant (kon) of 69700 M⁻¹ s⁻¹.
